According to PMC2360737:

Experiments:
[1] = target: p27 (human (endogenous in A2780)) (UniProt P46527); test: co-IP; endogenous proteins in crude lysates of A2780 cells, untreated or treated with 0.6 uM DAP (up to 36 h; also after control or p21 siRNA); immunoprecipitated with anti-CDK4, anti-CDK2, anti-p21 or anti-p27 antibody, immunoblotted
[2] = target: p21 (human (endogenous in A2780)) (UniProt P38936); test: as above
Sequence of UniProt P38936 (P38936 whole entry): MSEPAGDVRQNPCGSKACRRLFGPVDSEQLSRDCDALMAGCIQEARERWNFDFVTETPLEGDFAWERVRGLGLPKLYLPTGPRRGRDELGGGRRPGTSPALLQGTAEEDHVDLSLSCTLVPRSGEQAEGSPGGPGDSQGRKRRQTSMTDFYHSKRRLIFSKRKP

Sequence of cyclin E (P24864 whole entry): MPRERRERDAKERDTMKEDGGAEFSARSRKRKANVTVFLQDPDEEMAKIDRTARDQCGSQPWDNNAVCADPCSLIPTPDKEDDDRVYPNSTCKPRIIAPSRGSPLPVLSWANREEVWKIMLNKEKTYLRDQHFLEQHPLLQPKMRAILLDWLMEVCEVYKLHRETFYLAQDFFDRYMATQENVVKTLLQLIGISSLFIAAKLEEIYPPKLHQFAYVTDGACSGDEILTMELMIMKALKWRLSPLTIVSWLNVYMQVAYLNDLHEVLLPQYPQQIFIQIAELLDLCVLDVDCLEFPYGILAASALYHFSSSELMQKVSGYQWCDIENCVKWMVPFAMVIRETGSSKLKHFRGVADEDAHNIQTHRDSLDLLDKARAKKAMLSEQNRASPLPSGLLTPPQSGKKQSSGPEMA
Sequence of UniProt P46527 (P46527 whole entry): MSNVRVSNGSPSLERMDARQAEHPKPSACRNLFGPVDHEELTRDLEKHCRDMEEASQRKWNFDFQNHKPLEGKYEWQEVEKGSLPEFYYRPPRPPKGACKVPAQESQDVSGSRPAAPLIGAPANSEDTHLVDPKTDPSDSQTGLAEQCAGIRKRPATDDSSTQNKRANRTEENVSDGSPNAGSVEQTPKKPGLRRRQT

percent of CDK2/cyclin E complex bound [1]: 25%
fold of cyclin E co-precipitated with p21 against that with p27 [2]: 3 fold
percent of CDK2/cyclin E complex bound [2]: 75%
Substance: cyclin E (from UniProt P24864 1-410) (natural protein)
